The source of these data is patent US20040151721A1 (Takeda / Millennium, published 2004).

As a reminder, the IC50 is the midpoint of a concentration-inhibition curve.

Where “and” joins values, the source holds several entries; their conditions need not be identical. Equal entries are not always repeated.

Test [1] addresses T1, CCR5 expressed on L1/2 transfectants (UniProt P51681 1-352, limits assumed).
T1 construct: whole, on cells; also called CCR5 transfectants
The test is described as follows: flow cytometry on L1/2 transfectants, hybridoma supernatant. The method, then:
(§1) For the staining of cultured transfectant cell lines 0.5×10^6 cells in 50 μl were resuspended in PBS+1% FCS in a 96 well polystyrene V-bottom plate. 50 μl of primary antibody supernatants or HT medium (negative control) were added, and the samples were incubated at 4° C. for 30 min. 100 μl of PBS were added and the cells were pelleted by centrifugation and washed once with PBS. The pellet was resuspended in 100 μl PBS+1% FCS containing FITC-conjugated goat anti-mouse IgG antibody (a 1:250 dilution) and incubated for thirty minutes at 4° C. in the dark. The cells were washed twice with PBS, resuspended in PBS, and analyzed by flow cytrometry with a FacScan cytometer using the CellQuest software (Becton-Dickenson) Cells were fixed with PBS/1% formaldehyde if they were not to be analyzed the same day. Monoclonal antibodies 1D9 and 8G2 stain CCR2 transfectants but not CCR1 or CCR5 transfectants (FIG. 1).

Test [2] deals with T2, CCR1 expressed on L1/2 transfectants (UniProt P32246 1-355, limits assumed).
T2 construct: whole, on cells; also called CCR1 transfectants
T2 sequence (looked up): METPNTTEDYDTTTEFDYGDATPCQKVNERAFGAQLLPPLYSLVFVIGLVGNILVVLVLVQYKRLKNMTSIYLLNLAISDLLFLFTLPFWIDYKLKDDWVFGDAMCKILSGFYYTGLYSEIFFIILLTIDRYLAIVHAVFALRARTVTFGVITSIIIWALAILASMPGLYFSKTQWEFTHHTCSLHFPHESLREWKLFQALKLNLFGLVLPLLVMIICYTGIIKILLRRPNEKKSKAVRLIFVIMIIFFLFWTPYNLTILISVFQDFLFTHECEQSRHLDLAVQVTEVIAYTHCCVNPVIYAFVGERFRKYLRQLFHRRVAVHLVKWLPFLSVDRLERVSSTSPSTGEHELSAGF
Described as above. The method, then: as §1

For test [3], the target named is T3, human CCR2, endogenous on THP-1 cells / THP-1 cell membranes, fresh PBMC and whole blood cells (human, UniProt P41597 1-374).
T3 construct: whole, on cells; Native receptor; It was used on whole cells and as a THP-1 membrane preparation; The splice form is not specified for THP-1; also called CCR2b (on blood cells)
The test is described as follows: inhibition of 0.1 nM [125I]MCP-1 binding to fresh PBMC, filtration and scintillation counting. The method, then:
The amount of bound tracer was determined by separation of free from bound by filtration and scintillation counting. The data was analyzed to determine the IC50 value as for FIG. 4.
(§2) Competition binding experiments were performed by including variable concentrations of unlabeled MCP-1, 1D9 antibody, or a negative control IgG2a. Nonspecific binding was determined following the addition of a 2500-fold excess of unlabeled MCP-1. Samples were incubated for 60 minutes at room temperature, and bound and free tracer were separated by filtration through 96-well GF/B filterplates presoaked in 0.3% polyethyleneimine.

The target of test [4] is T3, human CCR2, endogenous on THP-1 cells / …. Kind of test: inhibition of 0.1 nM [125I]MCP-1 binding to THP-1 cell membranes, filtration and scintillation counting. As for the experimental part: The amount of bound tracer was determined by separation of free from bound by filtration and scintillation counting. The data was analyzed to determine the IC50 value by non-linear regression using a 4-parameter logistic equation with KaleidaGraph software.
as §2

T3 sequence (P41597 whole entry, canonical isoform): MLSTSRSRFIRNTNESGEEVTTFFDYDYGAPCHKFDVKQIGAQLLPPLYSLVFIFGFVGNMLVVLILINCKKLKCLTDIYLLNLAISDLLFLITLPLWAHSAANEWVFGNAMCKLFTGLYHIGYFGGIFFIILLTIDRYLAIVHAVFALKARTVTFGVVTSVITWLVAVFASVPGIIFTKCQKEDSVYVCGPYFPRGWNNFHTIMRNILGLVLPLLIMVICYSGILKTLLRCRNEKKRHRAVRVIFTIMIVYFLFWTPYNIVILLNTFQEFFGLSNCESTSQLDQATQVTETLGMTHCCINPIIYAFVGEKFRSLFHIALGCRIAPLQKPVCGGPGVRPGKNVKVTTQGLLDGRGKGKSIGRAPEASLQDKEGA
T1 sequence (P51681 whole entry): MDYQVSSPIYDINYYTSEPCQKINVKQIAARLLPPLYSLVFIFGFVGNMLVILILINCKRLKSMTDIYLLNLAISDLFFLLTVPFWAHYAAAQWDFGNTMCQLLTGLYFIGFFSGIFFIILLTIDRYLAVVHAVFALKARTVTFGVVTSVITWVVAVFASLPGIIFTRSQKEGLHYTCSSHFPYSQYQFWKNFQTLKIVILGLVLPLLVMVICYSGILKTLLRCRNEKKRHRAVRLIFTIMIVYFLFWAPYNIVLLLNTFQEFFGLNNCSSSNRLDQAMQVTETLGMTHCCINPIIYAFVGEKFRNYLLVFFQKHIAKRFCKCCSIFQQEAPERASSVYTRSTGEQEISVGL

B1: murine monoclonal antibody LS132.1D9 (1D9) (antibody, V domains shown)
VH: EVQLVESGGGLVQPKGSLKLSCAASGFSFNAYAMNWVRQAPGKGLEWVARIRTKNNNYATYYADSVKDRYTISRDDSESMLFLQMNNLKTEDTAMYYCVTFYGNGVWGTGTTVTVSS
VL: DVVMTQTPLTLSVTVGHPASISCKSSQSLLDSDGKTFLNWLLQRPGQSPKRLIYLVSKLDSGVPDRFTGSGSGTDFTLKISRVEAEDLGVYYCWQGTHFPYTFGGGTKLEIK
notes: Mouse hybridoma antibody with a kappa light chain; The controls used were murine IgG2a and an 'isotype-matched' antibody, so IgG2a is implied; It was used as hybridoma supernatant in FACS; also called mAb 1D9; mus-1D9
As to B1, the binding result in test [1] and in test [2] was “no binding” throughout. For the same molecule, the IC50 is 0.04 µg/mL and ~0.2 nM in test [3]; ~0.004 µg/mL and ~0.02 nM in test [4].
